Source: PMC11882849, “Dynamic and intricate regulation by the Csr sRNAs in the Arctic Pseudoalteromonas fuliginea”

Target: CsrA (Pseudoalteromonas fuliginea BSW20308, UniProt A0A063KJE6 1-63)
Test: EMSA; 1 uM CsrA; 0.1-0.5 nM RNA, 40 mM NaCl, 4 mM Tris pH 8.0, 4 mM MgCl2, 4% glycerol, 100 mg/ml BSA (so in the source), 20 mM DTT, room temperature 30 min, native PAGE
Details: protein: recombinant; tags: C-terminal His6; chain copies: 2

B1: Pf3 sRNA (structured_RNA)
RNA: AAUAAAAAAACGGAAAUAGCUAUAAGGAAAGUAGCGCGGCACGACUACAUAGCACAAGAUUGGUGCUACUAAAGGAAAUAAUAAAAAAGAGUCAGGAAGACCGAUAAUAAUAAAAACUCAUGGAAGUUUAAUAAUAAAAACAAAAUGGAAUGCUACAAGGAACGUAAAAAUAAUAACAAUACGGACUGAUAAUAAUAAAAAUAAUAAAGACUAAAAAAAGUCGAAGGGAGA
binding result: binds
